Experimental data from publication PMC7693276.

What follows are substances tested against central subunit ND3 of Y. lipolytica complex I (Y. lipolytica) (UniProt Q9B6C7).
UniProt Q9B6C7, sequence (Q9B6C7 whole entry, one chain of several): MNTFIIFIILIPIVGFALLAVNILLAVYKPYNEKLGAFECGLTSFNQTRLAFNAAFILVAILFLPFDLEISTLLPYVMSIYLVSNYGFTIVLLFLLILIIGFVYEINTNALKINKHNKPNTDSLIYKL

Substance | complex I activity (Q reductase activity), residual rate of the mutant [%]
accessory subunit LYRM6 (NDUFA6) mutant L42A of Y. lipolytica complex I (natural protein) | < 25
accessory subunit LYRM6 (NDUFA6) mutant Y43A of Y. lipolytica complex I (natural protein) | < 25
accessory subunit LYRM6 (NDUFA6) mutant F89A of Y. lipolytica complex I (natural protein) | < 25
